Test results from patent US20140087995A1 (published 2014).
Numbered stars: 1 amine (or outer) side, 2 acyl side, 3 side chain; on linkers, the order of the positions; unused ones are H or OH. Bridge positions count the residues as written; N and C are the ends. Side chains are listed from the residue outwards. Ends that are not written are not given here. * marks the point of attachment. C20 diacid = O=C(O)CCCCCCCCCCCCCCCCCCC(=O)*; γGlu = O=C(O)[C@H](CCC(=O)[*:2])N[*:1]; AEEA = NCCOCCOCC(=O)O

T1: human calcitonin receptor (human, UniProt P30988 25-474)
T1 construct: whole, on cells; Used as cell membranes prepared from the transfected BHK cells (Assay VII), not as intact cells; also called hCTR; hCT
T1 sequence (looked up): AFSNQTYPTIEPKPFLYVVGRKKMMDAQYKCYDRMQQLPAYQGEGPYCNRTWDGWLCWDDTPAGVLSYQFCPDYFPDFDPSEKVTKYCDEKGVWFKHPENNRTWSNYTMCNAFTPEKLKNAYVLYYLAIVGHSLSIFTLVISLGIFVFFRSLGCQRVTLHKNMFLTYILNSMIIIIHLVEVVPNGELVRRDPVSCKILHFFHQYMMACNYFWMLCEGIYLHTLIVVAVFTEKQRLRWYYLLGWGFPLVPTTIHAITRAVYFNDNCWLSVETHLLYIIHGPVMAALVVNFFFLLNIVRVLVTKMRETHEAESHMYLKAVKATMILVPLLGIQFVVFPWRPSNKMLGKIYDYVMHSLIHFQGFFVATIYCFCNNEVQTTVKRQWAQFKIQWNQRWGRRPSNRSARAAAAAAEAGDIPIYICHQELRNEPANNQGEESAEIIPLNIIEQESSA

B1: N^ε-[(4S)-4-carboxy-4-(19-carboxynonadecanoylamino)butanoyl]Lys[Arg1,Arg17,Pro21,Pro27,His35]-h-amylin (peptide)
peptide: K([γGlu-C20 diacid])RCNTATCATQRLANFLRHSSPNFGAIPSSTNVGSHTY-NH2
modifications: disulfide 3-8; N-terminus assumed
SMILES: CC[C@H](C)[C@H](NC(=O)[C@H](C)NC(=O)CNC(=O)[C@H](Cc1ccccc1)NC(=O)[C@H](CC(N)=O)NC(=O)[C@@H]1CCCN1C(=O)[C@H](CO)NC(=O)[C@H](CO)NC(=O)[C@H](Cc1c[nH]cn1)NC(=O)[C@H](CCCNC(=N)N)NC(=O)[C@H](CC(C)C)NC(=O)[C@H](Cc1ccccc1)NC(=O)[C@H](CC(N)=O)NC(=O)[C@H](C)NC(=O)[C@H](CC(C)C)NC(=O)[C@H](CCCNC(=N)N)NC(=O)[C@H](CCC(N)=O)NC(=O)[C@@H](NC(=O)[C@H](C)NC(=O)[C@@H]1CSSC[C@H](NC(=O)[C@H](CCCNC(=N)N)NC(=O)[C@@H](N)CCCCNC(=O)CC[C@H](NC(=O)CCCCCCCCCCCCCCCCCCC(=O)O)C(=O)O)C(=O)N[C@@H](CC(N)=O)C(=O)N[C@@H]([C@@H](C)O)C(=O)N[C@@H](C)C(=O)N[C@@H]([C@@H](C)O)C(=O)N1)[C@@H](C)O)C(=O)N1CCC[C@H]1C(=O)N[C@@H](CO)C(=O)N[C@@H](CO)C(=O)N[C@H](C(=O)N[C@@H](CC(N)=O)C(=O)N[C@H](C(=O)NCC(=O)N[C@@H](CO)C(=O)N[C@@H](Cc1c[nH]cn1)C(=O)N[C@H](C(=O)N[C@@H](Cc1ccc(O)cc1)C(N)=O)[C@@H](C)O)C(C)C)[C@@H](C)O
notes: also called compound 44
B2: N^-1-[(4S)-4-carboxy-4-(19-carboxynonadecanoylamino)butanoyl]-Gly[Arg1,Arg17,Pro21,Pro27]-h-amylin (peptide)
peptide: {C20 diacid-γGlu}-GRCNTATCATQRLANFLRHSSPNFGAIPSSTNVGSNTY-NH2
modifications: disulfide 3-8
SMILES: CC[C@H](C)[C@H](NC(=O)[C@H](C)NC(=O)CNC(=O)[C@H](Cc1ccccc1)NC(=O)[C@H](CC(N)=O)NC(=O)[C@@H]1CCCN1C(=O)[C@H](CO)NC(=O)[C@H](CO)NC(=O)[C@H](Cc1c[nH]cn1)NC(=O)[C@H](CCCNC(=N)N)NC(=O)[C@H](CC(C)C)NC(=O)[C@H](Cc1ccccc1)NC(=O)[C@H](CC(N)=O)NC(=O)[C@H](C)NC(=O)[C@H](CC(C)C)NC(=O)[C@H](CCCNC(=N)N)NC(=O)[C@H](CCC(N)=O)NC(=O)[C@@H](NC(=O)[C@H](C)NC(=O)[C@@H]1CSSC[C@H](NC(=O)[C@H](CCCNC(=N)N)NC(=O)CNC(=O)CC[C@H](NC(=O)CCCCCCCCCCCCCCCCCCC(=O)O)C(=O)O)C(=O)N[C@@H](CC(N)=O)C(=O)N[C@@H]([C@@H](C)O)C(=O)N[C@@H](C)C(=O)N[C@@H]([C@@H](C)O)C(=O)N1)[C@@H](C)O)C(=O)N1CCC[C@H]1C(=O)N[C@@H](CO)C(=O)N[C@@H](CO)C(=O)N[C@H](C(=O)N[C@@H](CC(N)=O)C(=O)N[C@H](C(=O)NCC(=O)N[C@@H](CO)C(=O)N[C@@H](CC(N)=O)C(=O)N[C@H](C(=O)N[C@@H](Cc1ccc(O)cc1)C(N)=O)[C@@H](C)O)C(C)C)[C@@H](C)O
notes: also called compound 46
B3: N^-1-[(4S)-4-carboxy-4-(19-carboxynonadecanoylamino)butanoyl]-Gly[Arg1,Arg17,Pro21,Pro27,His35]-h-amylin (peptide)
peptide: {C20 diacid-γGlu}-GRCNTATCATQRLANFLRHSSPNFGAIPSSTNVGSHTY-NH2
modifications: disulfide 3-8
SMILES: CC[C@H](C)[C@H](NC(=O)[C@H](C)NC(=O)CNC(=O)[C@H](Cc1ccccc1)NC(=O)[C@H](CC(N)=O)NC(=O)[C@@H]1CCCN1C(=O)[C@H](CO)NC(=O)[C@H](CO)NC(=O)[C@H](Cc1c[nH]cn1)NC(=O)[C@H](CCCNC(=N)N)NC(=O)[C@H](CC(C)C)NC(=O)[C@H](Cc1ccccc1)NC(=O)[C@H](CC(N)=O)NC(=O)[C@H](C)NC(=O)[C@H](CC(C)C)NC(=O)[C@H](CCCNC(=N)N)NC(=O)[C@H](CCC(N)=O)NC(=O)[C@@H](NC(=O)[C@H](C)NC(=O)[C@@H]1CSSC[C@H](NC(=O)[C@H](CCCNC(=N)N)NC(=O)CNC(=O)CC[C@H](NC(=O)CCCCCCCCCCCCCCCCCCC(=O)O)C(=O)O)C(=O)N[C@@H](CC(N)=O)C(=O)N[C@@H]([C@@H](C)O)C(=O)N[C@@H](C)C(=O)N[C@@H]([C@@H](C)O)C(=O)N1)[C@@H](C)O)C(=O)N1CCC[C@H]1C(=O)N[C@@H](CO)C(=O)N[C@@H](CO)C(=O)N[C@H](C(=O)N[C@@H](CC(N)=O)C(=O)N[C@H](C(=O)NCC(=O)N[C@@H](CO)C(=O)N[C@@H](Cc1c[nH]cn1)C(=O)N[C@H](C(=O)N[C@@H](Cc1ccc(O)cc1)C(N)=O)[C@@H](C)O)C(C)C)[C@@H](C)O
notes: also called compound 47
B4: N^ε1-[(4S)-4-carboxy-4-(19-carboxynonadecanoylamino)butanoyl]-[Arg17,Pro21,Pro27]-h-amylin (peptide)
peptide: K([γGlu-C20 diacid])CNTATCATQRLANFLRHSSPNFGAIPSSTNVGSNTY-NH2
modifications: disulfide 2-7; N-terminus assumed
SMILES: CC[C@H](C)[C@H](NC(=O)[C@H](C)NC(=O)CNC(=O)[C@H](Cc1ccccc1)NC(=O)[C@H](CC(N)=O)NC(=O)[C@@H]1CCCN1C(=O)[C@H](CO)NC(=O)[C@H](CO)NC(=O)[C@H](Cc1c[nH]cn1)NC(=O)[C@H](CCCNC(=N)N)NC(=O)[C@H](CC(C)C)NC(=O)[C@H](Cc1ccccc1)NC(=O)[C@H](CC(N)=O)NC(=O)[C@H](C)NC(=O)[C@H](CC(C)C)NC(=O)[C@H](CCCNC(=N)N)NC(=O)[C@H](CCC(N)=O)NC(=O)[C@@H](NC(=O)[C@H](C)NC(=O)[C@@H]1CSSC[C@H](NC(=O)[C@@H](N)CCCCNC(=O)CC[C@H](NC(=O)CCCCCCCCCCCCCCCCCCC(=O)O)C(=O)O)C(=O)N[C@@H](CC(N)=O)C(=O)N[C@@H]([C@@H](C)O)C(=O)N[C@@H](C)C(=O)N[C@@H]([C@@H](C)O)C(=O)N1)[C@@H](C)O)C(=O)N1CCC[C@H]1C(=O)N[C@@H](CO)C(=O)N[C@@H](CO)C(=O)N[C@H](C(=O)N[C@@H](CC(N)=O)C(=O)N[C@H](C(=O)NCC(=O)N[C@@H](CO)C(=O)N[C@@H](CC(N)=O)C(=O)N[C@H](C(=O)N[C@@H](Cc1ccc(O)cc1)C(N)=O)[C@@H](C)O)C(C)C)[C@@H](C)O
notes: also called compound 48
B5: N^ε-[2-[2-[2-[[(4S)-4-carboxy-4-(19-carboxynonadecanoylamino)butanoyl]amino]ethoxy]ethoxy]acetyl]Lys[Arg1,Arg17,Pro21,Pro27,His35]-h-amylin (peptide)
peptide: K([AEEA-γGlu-C20 diacid])RCNTATCATQRLANFLRHSSPNFGAIPSSTNVGSHTY-NH2
modifications: disulfide 3-8; N-terminus assumed
SMILES: CC[C@H](C)[C@H](NC(=O)[C@H](C)NC(=O)CNC(=O)[C@H](Cc1ccccc1)NC(=O)[C@H](CC(N)=O)NC(=O)[C@@H]1CCCN1C(=O)[C@H](CO)NC(=O)[C@H](CO)NC(=O)[C@H](Cc1c[nH]cn1)NC(=O)[C@H](CCCNC(=N)N)NC(=O)[C@H](CC(C)C)NC(=O)[C@H](Cc1ccccc1)NC(=O)[C@H](CC(N)=O)NC(=O)[C@H](C)NC(=O)[C@H](CC(C)C)NC(=O)[C@H](CCCNC(=N)N)NC(=O)[C@H](CCC(N)=O)NC(=O)[C@@H](NC(=O)[C@H](C)NC(=O)[C@@H]1CSSC[C@H](NC(=O)[C@H](CCCNC(=N)N)NC(=O)[C@@H](N)CCCCNC(=O)COCCOCCNC(=O)CC[C@H](NC(=O)CCCCCCCCCCCCCCCCCCC(=O)O)C(=O)O)C(=O)N[C@@H](CC(N)=O)C(=O)N[C@@H]([C@@H](C)O)C(=O)N[C@@H](C)C(=O)N[C@@H]([C@@H](C)O)C(=O)N1)[C@@H](C)O)C(=O)N1CCC[C@H]1C(=O)N[C@@H](CO)C(=O)N[C@@H](CO)C(=O)N[C@H](C(=O)N[C@@H](CC(N)=O)C(=O)N[C@H](C(=O)NCC(=O)N[C@@H](CO)C(=O)N[C@@H](Cc1c[nH]cn1)C(=O)N[C@H](C(=O)N[C@@H](Cc1ccc(O)cc1)C(N)=O)[C@@H](C)O)C(C)C)[C@@H](C)O
notes: also called compound 45

What follows are binders tested against T1, human calcitonin receptor (assay: SPA competition against 125I-calcitonin, membranes with human calcitonin receptor (Assay VII)).
Procedure, shortened: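 BHK hCTR membranes 35 ng/μL + SPA beads 0.05 mg/well; buffer 50 mM Hepes pH 7.4, 1 mM CaCl2, 5 mM MgCl₂, 0.1% OA, 0.02% Tween20. 120 min, 25° C., shaking. Scintillation count; IC50 by one-site binding competition.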
B1 gave an IC50 of 4.87 nM.
Work on B2 yielded an IC50 of 9.53 nM.
In the case of B3, the IC50 is reported as 15.5 nM.
For B4, the IC50 was 30.9 nM.
Binder B5 has an IC50 of 14.8 nM.
